Measured values published in patent publication US10941182 (Amgen, dated 2021).
Starred links: 1 amine or outer side, 2 acyl side, 3 side chain; linkers in the order of their positions; H or OH if unused. Non-standard residues stand in square brackets, D forms with d. Primed or numbered codes have the meaning given here. *: point of attachment. dBip = N[C@H](Cc1ccc(-c2ccccc2)cc1)C(=O)O; Oic = O=C(O)[C@@H]1C[C@@H]2CCCC[C@@H]2N1; Phe(4-Cl) = N[C@@H](Cc1ccc(Cl)cc1)C(=O)O; dPhe(4-Cl) = N[C@H](Cc1ccc(Cl)cc1)C(=O)O; Heptadecanoyl = CCCCCCCCCCCCCCCCC(=O)*; Phe(4-I) = N[C@@H](Cc1ccc(I)cc1)C(=O)O; γGlu = O=C(O)[C@H](CCC(=O)[*:2])N[*:1]; NMeR = CN[C@@H](CCCNC(=N)N)C(=O)O; Tridecanoyl = CCCCCCCCCCCCC(=O)*; hArg = N=C(N)NCCCC[C@H](N)C(=O)O; Tic = O=C(O)[C@@H]1Cc2ccccc2CN1; Cha = N[C@@H](CC1CCCCC1)C(=O)O; NMeL = CN[C@@H](CC(C)C)C(=O)O; Nle = CCCC[C@H](N)C(=O)O; Pip′ = not defined here; AEEA = NCCOCCOCC(=O)O

T1: human APJ receptor (human, UniProt P35414 1-380)
T1 sequence (looked up): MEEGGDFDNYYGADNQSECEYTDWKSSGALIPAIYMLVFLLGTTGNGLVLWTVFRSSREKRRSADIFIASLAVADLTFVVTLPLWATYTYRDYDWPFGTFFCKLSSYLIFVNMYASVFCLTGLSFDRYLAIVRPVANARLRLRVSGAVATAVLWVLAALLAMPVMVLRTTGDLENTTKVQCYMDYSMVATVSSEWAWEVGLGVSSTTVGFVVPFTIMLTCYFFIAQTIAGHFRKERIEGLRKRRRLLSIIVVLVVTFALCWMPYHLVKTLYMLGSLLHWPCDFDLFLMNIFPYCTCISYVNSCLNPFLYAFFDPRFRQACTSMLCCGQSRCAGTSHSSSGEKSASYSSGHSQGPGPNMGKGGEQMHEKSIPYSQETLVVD

T2: rat APJ receptor (rat, UniProt Q9JHG3 1-377)
T2 sequence (looked up): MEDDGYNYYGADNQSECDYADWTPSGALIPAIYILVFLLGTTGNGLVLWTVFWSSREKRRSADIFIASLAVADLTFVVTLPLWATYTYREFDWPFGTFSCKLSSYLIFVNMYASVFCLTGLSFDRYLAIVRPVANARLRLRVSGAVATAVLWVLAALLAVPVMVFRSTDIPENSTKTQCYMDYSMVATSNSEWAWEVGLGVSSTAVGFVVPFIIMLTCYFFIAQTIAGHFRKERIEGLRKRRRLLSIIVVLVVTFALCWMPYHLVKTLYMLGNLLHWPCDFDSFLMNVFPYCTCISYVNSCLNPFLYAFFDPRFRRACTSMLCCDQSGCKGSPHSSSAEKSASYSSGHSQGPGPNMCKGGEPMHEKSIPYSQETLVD


Legend:
human APJ receptor = target: T1, human APJ receptor; test: cell-based or functional assay
rat APJ receptor = target: T2, rat APJ receptor; test: cell-based or functional assay

Binder | EC50 Human APJ Receptor (human APJ receptor) [nM] | EC50 Rat APJ Receptor (rat APJ receptor) [nM]
Heptadecanoyl-[γGlu][AEEA][AEEA][dQ][hArg]P[NMeR][Cha]SHKG[Oic][Nle]P[dPhe(4-Cl)]-OH (SMILES CCCCCCCCCCCCCCCCC(=O)N[C@@H](CCC(=O)NCCOCCOCC(=O)NCCOCCOCC(=O)N[C@H](CCC(N)=O)C(=O)N[C@@H](CCCCNC(=N)N)C(=O)N1CCC[C@H]1C(=O)N(C)[C@@H](CCCNC(=N)N)C(=O)N[C@@H](CC1CCCCC1)C(=O)N[C@@H](CO)C(=O)N[C@@H](Cc1c[nH]cn1)C(=O)N[C@@H](CCCCN)C(=O)NCC(=O)N1[C@H](C(=O)N[C@@H](CCCC)C(=O)N2CCC[C@H]2C(=O)N[C@H](Cc2ccc(Cl)cc2)C(=O)O)C[C@@H]2CCCC[C@@H]21)C(=O)O) [apelin polypeptide SEQ ID NO: 237] | 4.96 | 4.89
Tridecanoyl-[γGlu][AEEA][AEEA]Q[hArg]P[dR][NMeL]SHKG[Oic][Nle]P[dBip]-OH (SMILES CCCCCCCCCCCCC(=O)N[C@@H](CCC(=O)NCCOCCOCC(=O)NCCOCCOCC(=O)N[C@@H](CCC(N)=O)C(=O)N[C@@H](CCCCNC(=N)N)C(=O)N1CCC[C@H]1C(=O)N[C@H](CCCNC(=N)N)C(=O)N(C)[C@@H](CC(C)C)C(=O)N[C@@H](CO)C(=O)N[C@@H](Cc1c[nH]cn1)C(=O)N[C@@H](CCCCN)C(=O)NCC(=O)N1[C@H](C(=O)N[C@@H](CCCC)C(=O)N2CCC[C@H]2C(=O)N[C@H](Cc2ccc(-c3ccccc3)cc2)C(=O)O)C[C@@H]2CCCC[C@@H]21)C(=O)O) [apelin polypeptide SEQ ID NO: 227] | 8.77 | 97.5
Ac-[dR][hArg]Q[hArg]P[dR][NMeL]SHKG[Oic][Phe(4-I)]P[dBip]-OH [apelin polypeptide SEQ ID NO: 18] | 0.468 | 0.523
Tridecanoyl-[γGlu][AEEA][AEEA][hArg]Q[dR]P[NMeR][Cha]SHKG[Oic][Nle]P[Phe(4-Cl)]-OH (SMILES CCCCCCCCCCCCC(=O)N[C@@H](CCC(=O)NCCOCCOCC(=O)NCCOCCOCC(=O)N[C@@H](CCCCNC(=N)N)C(=O)N[C@@H](CCC(N)=O)C(=O)N[C@H](CCCNC(=N)N)C(=O)N1CCC[C@H]1C(=O)N(C)[C@@H](CCCNC(=N)N)C(=O)N[C@@H](CC1CCCCC1)C(=O)N[C@@H](CO)C(=O)N[C@@H](Cc1c[nH]cn1)C(=O)N[C@@H](CCCCN)C(=O)NCC(=O)N1[C@H](C(=O)N[C@@H](CCCC)C(=O)N2CCC[C@H]2C(=O)N[C@@H](Cc2ccc(Cl)cc2)C(=O)O)C[C@@H]2CCCC[C@@H]21)C(=O)O) [apelin polypeptide SEQ ID NO: 229] | 0.235 | 3.29
Tridecanoyl-[γGlu][AEEA][AEEA]Q[hArg]P[dR][NMeL]SHKG[Oic][Phe(4-I)]P[Phe(4-Cl)]-OH (SMILES CCCCCCCCCCCCC(=O)N[C@@H](CCC(=O)NCCOCCOCC(=O)NCCOCCOCC(=O)N[C@@H](CCC(N)=O)C(=O)N[C@@H](CCCCNC(=N)N)C(=O)N1CCC[C@H]1C(=O)N[C@H](CCCNC(=N)N)C(=O)N(C)[C@@H](CC(C)C)C(=O)N[C@@H](CO)C(=O)N[C@@H](Cc1c[nH]cn1)C(=O)N[C@@H](CCCCN)C(=O)NCC(=O)N1[C@H](C(=O)N[C@@H](Cc2ccc(I)cc2)C(=O)N2CCC[C@H]2C(=O)N[C@@H](Cc2ccc(Cl)cc2)C(=O)O)C[C@@H]2CCCC[C@@H]21)C(=O)O) [apelin polypeptide SEQ ID NO: 226] | 20.8 | 91
Ac-[hArg][hArg][dQ][hArg]P[dR][NMeL]SHKG[Oic][Phe(4-I)]P[dBip]-OH [apelin polypeptide SEQ ID NO: 19] | 0.533 | 0.757
Tridecanoyl-[γGlu][AEEA][AEEA]Q[hArg]P[dR][Cha]SHKG[Oic][Nle]P[Phe(4-Cl)]-OH (SMILES CCCCCCCCCCCCC(=O)N[C@@H](CCC(=O)NCCOCCOCC(=O)NCCOCCOCC(=O)N[C@@H](CCC(N)=O)C(=O)N[C@@H](CCCCNC(=N)N)C(=O)N1CCC[C@H]1C(=O)N[C@H](CCCNC(=N)N)C(=O)N[C@@H](CC1CCCCC1)C(=O)N[C@@H](CO)C(=O)N[C@@H](Cc1c[nH]cn1)C(=O)N[C@@H](CCCCN)C(=O)NCC(=O)N1[C@H](C(=O)N[C@@H](CCCC)C(=O)N2CCC[C@H]2C(=O)N[C@@H](Cc2ccc(Cl)cc2)C(=O)O)C[C@@H]2CCCC[C@@H]21)C(=O)O) [apelin polypeptide SEQ ID NO: 228] | 0.484 | 7.91
Heptadecanoyl-[γGlu][AEEA][AEEA]Q[dR]P[NMeR][Cha]SHKG[Oic][Nle][Pip′][Phe(4-Cl)]-OH [apelin polypeptide SEQ ID NO: 234] | 6.05 | 12.5
Tridecanoyl-[γGlu][AEEA][AEEA]Q[hArg]P[dR][NMeL]SHKG[Oic][Nle]P[Phe(4-Cl)]-OH (SMILES CCCCCCCCCCCCC(=O)N[C@@H](CCC(=O)NCCOCCOCC(=O)NCCOCCOCC(=O)N[C@@H](CCC(N)=O)C(=O)N[C@@H](CCCCNC(=N)N)C(=O)N1CCC[C@H]1C(=O)N[C@H](CCCNC(=N)N)C(=O)N(C)[C@@H](CC(C)C)C(=O)N[C@@H](CO)C(=O)N[C@@H](Cc1c[nH]cn1)C(=O)N[C@@H](CCCCN)C(=O)NCC(=O)N1[C@H](C(=O)N[C@@H](CCCC)C(=O)N2CCC[C@H]2C(=O)N[C@@H](Cc2ccc(Cl)cc2)C(=O)O)C[C@@H]2CCCC[C@@H]21)C(=O)O) [apelin polypeptide SEQ ID NO: 225] | 3.02 | 47.9

The remaining lines, values ahead:

EC50 Human APJ Receptor (human APJ receptor) [nM] | EC50 Rat APJ Receptor (rat APJ receptor) [nM] | Binder
1.45 | 8.61 | Heptadecanoyl-[γGlu][AEEA][AEEA][hArg]Q[dR]P[NMeR][Cha]SHKG[Oic][Nle][Pip′][Phe(4-Cl)]-OH [apelin polypeptide SEQ ID NO: 239]
6.68 | 28.5 | Heptadecanoyl-[γGlu][AEEA][AEEA]Q[dR]P[NMeR][Cha]SHKG[Oic][Nle]P[Tic]-OH (SMILES CCCCCCCCCCCCCCCCC(=O)N[C@@H](CCC(=O)NCCOCCOCC(=O)NCCOCCOCC(=O)N[C@@H](CCC(N)=O)C(=O)N[C@H](CCCNC(=N)N)C(=O)N1CCC[C@H]1C(=O)N(C)[C@@H](CCCNC(=N)N)C(=O)N[C@@H](CC1CCCCC1)C(=O)N[C@@H](CO)C(=O)N[C@@H](Cc1c[nH]cn1)C(=O)N[C@@H](CCCCN)C(=O)NCC(=O)N1[C@H](C(=O)N[C@@H](CCCC)C(=O)N2CCC[C@H]2C(=O)N2Cc3ccccc3C[C@H]2C(=O)O)C[C@@H]2CCCC[C@@H]21)C(=O)O) [apelin polypeptide SEQ ID NO: 238]
1.19 | 10.3 | Heptadecanoyl-[γGlu][AEEA][AEEA][hArg]Q[dR]P[NMeR][Cha]SHKG[Oic][Nle]P[Tic]-OH (SMILES CCCCCCCCCCCCCCCCC(=O)N[C@@H](CCC(=O)NCCOCCOCC(=O)NCCOCCOCC(=O)N[C@@H](CCCCNC(=N)N)C(=O)N[C@@H](CCC(N)=O)C(=O)N[C@H](CCCNC(=N)N)C(=O)N1CCC[C@H]1C(=O)N(C)[C@@H](CCCNC(=N)N)C(=O)N[C@@H](CC1CCCCC1)C(=O)N[C@@H](CO)C(=O)N[C@@H](Cc1c[nH]cn1)C(=O)N[C@@H](CCCCN)C(=O)NCC(=O)N1[C@H](C(=O)N[C@@H](CCCC)C(=O)N2CCC[C@H]2C(=O)N2Cc3ccccc3C[C@H]2C(=O)O)C[C@@H]2CCCC[C@@H]21)C(=O)O) [apelin polypeptide SEQ ID NO: 243]
2.19 | 2.27 | Heptadecanoyl-[γGlu][AEEA][AEEA][hArg][dQ][hArg]P[NMeR][Cha]SHKG[Oic][Nle]P[dPhe(4-Cl)]-OH (SMILES CCCCCCCCCCCCCCCCC(=O)N[C@@H](CCC(=O)NCCOCCOCC(=O)NCCOCCOCC(=O)N[C@@H](CCCCNC(=N)N)C(=O)N[C@H](CCC(N)=O)C(=O)N[C@@H](CCCCNC(=N)N)C(=O)N1CCC[C@H]1C(=O)N(C)[C@@H](CCCNC(=N)N)C(=O)N[C@@H](CC1CCCCC1)C(=O)N[C@@H](CO)C(=O)N[C@@H](Cc1c[nH]cn1)C(=O)N[C@@H](CCCCN)C(=O)NCC(=O)N1[C@H](C(=O)N[C@@H](CCCC)C(=O)N2CCC[C@H]2C(=O)N[C@H](Cc2ccc(Cl)cc2)C(=O)O)C[C@@H]2CCCC[C@@H]21)C(=O)O) [apelin polypeptide SEQ ID NO: 242]
